The record followed here is patent US20140087995A1 (published 2014).

Numbered stars: 1 amine (or outer) side, 2 acyl side, 3 side chain; on linkers, the order of the positions; unused ones are H or OH. Bridge positions count the residues as written; N and C are the ends. Side chains are listed from the residue outwards. Ends that are not written are not given here. * marks the point of attachment. C20 diacid = O=C(O)CCCCCCCCCCCCCCCCCCC(=O)*; γGlu = O=C(O)[C@H](CCC(=O)[*:2])N[*:1]

T1: human calcitonin receptor (human, UniProt P30988 25-474)
T1 construct: whole, on cells; Membranes of BHK cells stably transfected with the human calcitonin receptor (Assay VII); also called hCTR; hCT
T1 sequence (looked up): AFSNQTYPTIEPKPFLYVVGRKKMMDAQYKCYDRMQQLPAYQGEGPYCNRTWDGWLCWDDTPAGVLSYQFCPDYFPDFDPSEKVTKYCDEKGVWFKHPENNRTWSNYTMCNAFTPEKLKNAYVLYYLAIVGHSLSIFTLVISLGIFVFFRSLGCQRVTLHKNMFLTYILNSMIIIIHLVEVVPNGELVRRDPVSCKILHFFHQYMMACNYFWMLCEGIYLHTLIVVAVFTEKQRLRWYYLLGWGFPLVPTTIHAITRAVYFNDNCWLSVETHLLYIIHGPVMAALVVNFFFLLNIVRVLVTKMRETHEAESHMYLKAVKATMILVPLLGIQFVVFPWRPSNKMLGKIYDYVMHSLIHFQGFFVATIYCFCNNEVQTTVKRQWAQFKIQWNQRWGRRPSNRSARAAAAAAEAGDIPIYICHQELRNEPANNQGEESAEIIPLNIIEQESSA

B1: N^ε1-[(4S)-4-carboxy-4-[[(4S)-4-carboxy-4-(19-carboxynonadecanoylamino)butanoyl]amino]butanoyl]-[Glu14,Arg17,Pro21,Pro27,Pro34,Glu35]-h-amylin (peptide)
peptide: K([γGlu-γGlu-C20 diacid])CNTATCATQRLAEFLRHSSPNFGAIPSSTNVGPETY-NH2
modifications: disulfide 2-7; N-terminus assumed
SMILES: CC[C@H](C)[C@H](NC(=O)[C@H](C)NC(=O)CNC(=O)[C@H](Cc1ccccc1)NC(=O)[C@H](CC(N)=O)NC(=O)[C@@H]1CCCN1C(=O)[C@H](CO)NC(=O)[C@H](CO)NC(=O)[C@H](Cc1c[nH]cn1)NC(=O)[C@H](CCCNC(=N)N)NC(=O)[C@H](CC(C)C)NC(=O)[C@H](Cc1ccccc1)NC(=O)[C@H](CCC(=O)O)NC(=O)[C@H](C)NC(=O)[C@H](CC(C)C)NC(=O)[C@H](CCCNC(=N)N)NC(=O)[C@H](CCC(N)=O)NC(=O)[C@@H](NC(=O)[C@H](C)NC(=O)[C@@H]1CSSC[C@H](NC(=O)[C@@H](N)CCCCNC(=O)CC[C@H](NC(=O)CC[C@H](NC(=O)CCCCCCCCCCCCCCCCCCC(=O)O)C(=O)O)C(=O)O)C(=O)N[C@@H](CC(N)=O)C(=O)N[C@@H]([C@@H](C)O)C(=O)N[C@@H](C)C(=O)N[C@@H]([C@@H](C)O)C(=O)N1)[C@@H](C)O)C(=O)N1CCC[C@H]1C(=O)N[C@@H](CO)C(=O)N[C@@H](CO)C(=O)N[C@H](C(=O)N[C@@H](CC(N)=O)C(=O)N[C@H](C(=O)NCC(=O)N1CCC[C@H]1C(=O)N[C@@H](CCC(=O)O)C(=O)N[C@H](C(=O)N[C@@H](Cc1ccc(O)cc1)C(N)=O)[C@@H](C)O)C(C)C)[C@@H](C)O
B2: N^-1-[(4S)-4-carboxy-4-(19-carboxynonadecanoylamino)butanoyl]-Gly[Arg1,His14,Arg17,Pro21,Pro27,His34]-h-amylin (peptide)
peptide: {C20 diacid-γGlu}-GRCNTATCATQRLAHFLRHSSPNFGAIPSSTNVGHNTY-NH2
modifications: disulfide 3-8
SMILES: CC[C@H](C)[C@H](NC(=O)[C@H](C)NC(=O)CNC(=O)[C@H](Cc1ccccc1)NC(=O)[C@H](CC(N)=O)NC(=O)[C@@H]1CCCN1C(=O)[C@H](CO)NC(=O)[C@H](CO)NC(=O)[C@H](Cc1c[nH]cn1)NC(=O)[C@H](CCCNC(=N)N)NC(=O)[C@H](CC(C)C)NC(=O)[C@H](Cc1ccccc1)NC(=O)[C@H](Cc1c[nH]cn1)NC(=O)[C@H](C)NC(=O)[C@H](CC(C)C)NC(=O)[C@H](CCCNC(=N)N)NC(=O)[C@H](CCC(N)=O)NC(=O)[C@@H](NC(=O)[C@H](C)NC(=O)[C@@H]1CSSC[C@H](NC(=O)[C@H](CCCNC(=N)N)NC(=O)CNC(=O)CC[C@H](NC(=O)CCCCCCCCCCCCCCCCCCC(=O)O)C(=O)O)C(=O)N[C@@H](CC(N)=O)C(=O)N[C@@H]([C@@H](C)O)C(=O)N[C@@H](C)C(=O)N[C@@H]([C@@H](C)O)C(=O)N1)[C@@H](C)O)C(=O)N1CCC[C@H]1C(=O)N[C@@H](CO)C(=O)N[C@@H](CO)C(=O)N[C@H](C(=O)N[C@@H](CC(N)=O)C(=O)N[C@H](C(=O)NCC(=O)N[C@@H](Cc1c[nH]cn1)C(=O)N[C@@H](CC(N)=O)C(=O)N[C@H](C(=O)N[C@@H](Cc1ccc(O)cc1)C(N)=O)[C@@H](C)O)C(C)C)[C@@H](C)O
notes: also called compound 100
B3: N^-1-[(4S)-4-carboxy-4-(19-carboxynonadecanoylamino)butanoyl]-Gly[Arg1,His14,Arg17,Pro21,Pro27,Pro34]-h-amylin (peptide)
peptide: {C20 diacid-γGlu}-GRCNTATCATQRLAHFLRHSSPNFGAIPSSTNVGPNTY-NH2
modifications: disulfide 3-8
SMILES: CC[C@H](C)[C@H](NC(=O)[C@H](C)NC(=O)CNC(=O)[C@H](Cc1ccccc1)NC(=O)[C@H](CC(N)=O)NC(=O)[C@@H]1CCCN1C(=O)[C@H](CO)NC(=O)[C@H](CO)NC(=O)[C@H](Cc1c[nH]cn1)NC(=O)[C@H](CCCNC(=N)N)NC(=O)[C@H](CC(C)C)NC(=O)[C@H](Cc1ccccc1)NC(=O)[C@H](Cc1c[nH]cn1)NC(=O)[C@H](C)NC(=O)[C@H](CC(C)C)NC(=O)[C@H](CCCNC(=N)N)NC(=O)[C@H](CCC(N)=O)NC(=O)[C@@H](NC(=O)[C@H](C)NC(=O)[C@@H]1CSSC[C@H](NC(=O)[C@H](CCCNC(=N)N)NC(=O)CNC(=O)CC[C@H](NC(=O)CCCCCCCCCCCCCCCCCCC(=O)O)C(=O)O)C(=O)N[C@@H](CC(N)=O)C(=O)N[C@@H]([C@@H](C)O)C(=O)N[C@@H](C)C(=O)N[C@@H]([C@@H](C)O)C(=O)N1)[C@@H](C)O)C(=O)N1CCC[C@H]1C(=O)N[C@@H](CO)C(=O)N[C@@H](CO)C(=O)N[C@H](C(=O)N[C@@H](CC(N)=O)C(=O)N[C@H](C(=O)NCC(=O)N1CCC[C@H]1C(=O)N[C@@H](CC(N)=O)C(=O)N[C@H](C(=O)N[C@@H](Cc1ccc(O)cc1)C(N)=O)[C@@H](C)O)C(C)C)[C@@H](C)O
B4: N^-1-[(4S)-4-carboxy-4-(19-carboxynonadecanoylamino)butanoyl]-Gly[Arg1,Ala14,Arg17,Pro21,Pro27,His34]-h-amylin (peptide)
peptide: {C20 diacid-γGlu}-GRCNTATCATQRLAAFLRHSSPNFGAIPSSTNVGHNTY-NH2
modifications: disulfide 3-8
SMILES: CC[C@H](C)[C@H](NC(=O)[C@H](C)NC(=O)CNC(=O)[C@H](Cc1ccccc1)NC(=O)[C@H](CC(N)=O)NC(=O)[C@@H]1CCCN1C(=O)[C@H](CO)NC(=O)[C@H](CO)NC(=O)[C@H](Cc1c[nH]cn1)NC(=O)[C@H](CCCNC(=N)N)NC(=O)[C@H](CC(C)C)NC(=O)[C@H](Cc1ccccc1)NC(=O)[C@H](C)NC(=O)[C@H](C)NC(=O)[C@H](CC(C)C)NC(=O)[C@H](CCCNC(=N)N)NC(=O)[C@H](CCC(N)=O)NC(=O)[C@@H](NC(=O)[C@H](C)NC(=O)[C@@H]1CSSC[C@H](NC(=O)[C@H](CCCNC(=N)N)NC(=O)CNC(=O)CC[C@H](NC(=O)CCCCCCCCCCCCCCCCCCC(=O)O)C(=O)O)C(=O)N[C@@H](CC(N)=O)C(=O)N[C@@H]([C@@H](C)O)C(=O)N[C@@H](C)C(=O)N[C@@H]([C@@H](C)O)C(=O)N1)[C@@H](C)O)C(=O)N1CCC[C@H]1C(=O)N[C@@H](CO)C(=O)N[C@@H](CO)C(=O)N[C@H](C(=O)N[C@@H](CC(N)=O)C(=O)N[C@H](C(=O)NCC(=O)N[C@@H](Cc1c[nH]cn1)C(=O)N[C@@H](CC(N)=O)C(=O)N[C@H](C(=O)N[C@@H](Cc1ccc(O)cc1)C(N)=O)[C@@H](C)O)C(C)C)[C@@H](C)O

The target of one assay is T1, human calcitonin receptor. In words: ratio of IC50 at hCTR over IC50 at hAmylin-R (SPA competition assays). The protocol:
The resulting pellet was resuspended, homogenized and centrifuged (20.000 rpm, 15 min) in a buffer containing 20 mM Na-HEPES and 0.1 mM EDTA (pH 7.4, buffer 2). The resulting pellet was resuspended in buffer 2 and protein concentration was measured (BCA protein Assay, Pierce). The homogenate was kept cold during the whole procedure. The membranes were kept at −80° C. until use. The assay was performed in a 384 well Optiplate (PerkinElmer) in a total volume of 40 ul. Membranes were mixed with SPA beads. Final concentration of membranes 35 ng/μL final and SPA beads was 0.05 mg/well. Test-compounds were dissolved in DMSO and further diluted in assay buffer (50 mM Hepes, pH 7.4, 1 mM CaCl2, 5 mM MgCl₂, 0.1% OA and 0.02% Tween20). […] The final mixture was incubated with shaking at 400 rpm for 120 min at 25° C. prior to centrifugation (1500 rpm, 10 min). Samples were analyzed on TopCounter™ (Packard). The IC₅₀ was calculated using (one site binding competition analysis) GraphPad Prism5 as a measure of receptor affinity.
Membranes were prepared in the following way; the cells were rinsed with PBS and incubated with Versene for approximately 5 min before harvesting. The cells were flushed with PBS and the cell-suspension was centrifuged for 5 min at 1000 rpm. Cells were homogenized (Ultrathurrax) in a buffer containing 20 mM Na-HEPES and 10 mM EDTA (pH 7.4) and centrifuged at 20.000 rpm for 15 min. The resulting pellet was resuspended, homogenized and centrifuged (20.000 rpm, 15 min) in a buffer containing 20 mM Na-HEPES and 0.1 mM EDTA (pH 7.4, buffer 2). The resulting pellet was resuspended in buffer 2 and protein concentration was measured (BCA protein Assay, Pierce). The homogenate was kept cold during the whole procedure. The membranes were kept at −80° C. until use. Assay was performed in a 384 well Optiplate (PerkinElmer) in a total volume of 40 ul. Membranes were mixed with SPA beads.
For the molecule B1, the “Ratio hCT/hAmylin binding” value stood at 17.6.
The same measure, in the same setting: the value for B2 was 65.3; that for B3 was 36.2; that for {C20 diacid-γGlu}-GRCNTATCATQRLAAFLRHSSPNFGAIPSSTNVGPNTY-NH2 (disulfide 3-8) was 26.5.
On the same count and under the same terms, the value for B4 was 68.6.

In the next assay the target is T1, human calcitonin receptor. Kind of assay: SPA competition against 125I-calcitonin, membranes of BHK cells with human calcitonin receptor (Assay VII). The method, then: Membranes were prepared in the following way; the cells were rinsed with PBS and incubated with Versene for approximately 5 min before harvesting. The cells were flushed with PBS and the cell-suspension was centrifuged for 5 min at 1000 rpm. Cells were homogenized (Ultrathurrax) in a buffer containing 20 mM Na-HEPES and 10 mM EDTA (pH 7.4) and centrifuged at 20.000 rpm for 15 min. The resulting pellet was resuspended, homogenized and centrifuged (20.000 rpm, 15 min) in a buffer containing 20 mM Na-HEPES and 0.1 mM EDTA (pH 7.4, buffer 2). The resulting pellet was resuspended in buffer 2 and protein concentration was measured (BCA protein Assay, Pierce). The homogenate was kept cold during the whole procedure. The membranes were kept at −80° C. until use. Assay was performed in a 384 well Optiplate (PerkinElmer) in a total volume of 40 ul. Membranes were mixed with SPA beads. Final concentration of membranes 35 ng/μL final and Final concentration of SPA beads was 0.05 mg/well. Test-compounds were dissolved in DMSO and further diluted in assay buffer (50 mM Hepes, pH 7.4, 1 mM CaCl2, 5 mM MgCl₂, 0.1% OA and 0.02% Tween20). […] The final mixture was incubated for 120 min with shaking at 400 rpm at 25° C. prior to centrifugation (1500 rpm, 10 min). Samples were analyzed on TopCounter™ (Packard). The […] was calculated using (one site binding competition analysis) GraphPad Prism5 as a measure of receptor affinity.
For the molecule B1, the IC50 stood at 2.13 nM.
On the same count and under the same terms, next, B2: 66.3 nM.
Still for that read-out and setting: the value for B3 was 7.87 nM; that for {C20 diacid-γGlu}-GRCNTATCATQRLAAFLRHSSPNFGAIPSSTNVGPNTY-NH2 (disulfide 3-8) was 3 nM.
B4: the IC50 came out at 29.2 nM.

By IC50 is commonly meant the midpoint of a concentration-inhibition curve.
